Measurements: patent US20180057604A1 (Genentech, published 2018)
Like-named read-outs stand apart in the source and are kept apart here. Each block holds one binder with its values, some of them ahead of it.

What was measured:
[1] = target: T1, BACE1 in primary mouse cortical neurons (mouse, UniProt P56818 46-501); test: cell-based or functional assay
[2] = target: T2, human BACE1 ECD; test: Octet, pH 5.0;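 note: antibodies captured on anti-human capture sensor tips, dissociation monitored in PBS with BSA buffer, kinetics fitted with a one-to-one binding model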
T2 construct: analyte of the Octet assay (200 nM) and enzyme of the first short substrate assay; also called human BACE1 extracellular domain
T2 sequence (single chain, as listed by the source limits assumed): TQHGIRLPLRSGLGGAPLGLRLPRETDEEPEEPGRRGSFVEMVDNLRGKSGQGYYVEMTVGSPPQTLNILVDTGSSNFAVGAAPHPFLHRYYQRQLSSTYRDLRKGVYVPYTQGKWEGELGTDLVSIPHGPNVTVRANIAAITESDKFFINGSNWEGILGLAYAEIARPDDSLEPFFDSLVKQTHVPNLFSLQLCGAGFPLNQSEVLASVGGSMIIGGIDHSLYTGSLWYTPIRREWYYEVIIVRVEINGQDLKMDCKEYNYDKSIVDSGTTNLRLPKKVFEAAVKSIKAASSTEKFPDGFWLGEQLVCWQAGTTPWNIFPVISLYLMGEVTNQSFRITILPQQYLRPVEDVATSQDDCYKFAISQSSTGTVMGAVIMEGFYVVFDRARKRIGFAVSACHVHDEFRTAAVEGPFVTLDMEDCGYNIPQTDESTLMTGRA
Method: (§1) Anti-BACE1 antibodies were loaded onto anti-human capture (AHC) sensors (tips) followed by 60 seconds baseline in assay buffer. […] Tips were transferred to assay buffer for 5 minutes, 30 minutes, or 120 minutes depending on the off-rate, for off-rate measurement. Assay buffer was either PBS+0.1% BSA, pH 7.5; or PBS+0.1% BSA, pH 5.0. Kinetics were analyzed using a 1:1 binding model.

[3] = target: T3, murine BACE1 ECD; test: Octet, pH 5.0;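 note: antibodies captured on anti-human capture sensor tips, dissociation monitored in PBS with BSA buffer, kinetics fitted with a one-to-one binding model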
T3 construct: analyte of the Octet assay (200 nM) and enzyme of the first short substrate assay
T3 sequence (single chain, as listed by the source limits assumed): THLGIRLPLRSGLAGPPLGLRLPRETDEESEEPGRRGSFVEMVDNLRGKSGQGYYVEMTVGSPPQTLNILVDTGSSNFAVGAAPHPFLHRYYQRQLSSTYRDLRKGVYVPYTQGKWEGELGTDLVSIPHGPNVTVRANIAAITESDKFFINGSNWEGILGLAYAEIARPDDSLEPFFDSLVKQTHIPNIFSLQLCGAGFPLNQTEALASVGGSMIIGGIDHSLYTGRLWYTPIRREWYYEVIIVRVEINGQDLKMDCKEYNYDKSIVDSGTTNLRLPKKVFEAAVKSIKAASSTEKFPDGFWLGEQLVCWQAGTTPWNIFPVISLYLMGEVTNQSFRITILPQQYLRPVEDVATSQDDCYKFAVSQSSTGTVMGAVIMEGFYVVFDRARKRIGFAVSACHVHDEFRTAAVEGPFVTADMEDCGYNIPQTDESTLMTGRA
Method: as §1

[4] = target: T2, human BACE1 ECD; test: Octet, pH 7.5;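 note: antibodies captured on anti-human capture sensor tips, dissociation monitored in PBS with BSA, Kd obtained from kinetic fit to a one-to-one binding model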
Method: as §1

[5] = target: T3, murine BACE1 ECD; test: Octet, pH 7.5;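 note: antibodies captured on anti-human capture sensor tips, dissociation monitored in PBS with BSA, Kd obtained from kinetic fit to a one-to-one binding model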
Method: as §1

[6] = target: T4, human BACE1 (R&D Systems) (human, UniProt P56817); test: SPR (Biacore)
T4 construct: recombinant, commercial (R&D Systems)
T4 sequence (P56817 22-457 limits assumed): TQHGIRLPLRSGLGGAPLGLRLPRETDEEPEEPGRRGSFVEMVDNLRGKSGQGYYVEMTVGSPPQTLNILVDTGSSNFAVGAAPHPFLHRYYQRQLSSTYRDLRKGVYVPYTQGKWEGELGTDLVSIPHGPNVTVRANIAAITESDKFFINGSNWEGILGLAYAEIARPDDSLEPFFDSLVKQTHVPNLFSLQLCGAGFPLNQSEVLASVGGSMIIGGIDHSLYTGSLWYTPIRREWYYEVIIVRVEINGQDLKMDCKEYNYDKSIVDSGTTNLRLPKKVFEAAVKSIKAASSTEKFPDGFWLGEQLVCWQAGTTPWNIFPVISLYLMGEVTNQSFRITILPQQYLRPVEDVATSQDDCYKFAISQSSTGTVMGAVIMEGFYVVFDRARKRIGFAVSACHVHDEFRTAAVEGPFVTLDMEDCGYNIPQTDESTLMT
Method: Binding affinities of certain anti-BACE1 IgGs were measured by surface plasmon resonance (SRP) using a BIAcore™-T100 instrument. […] Association rates (kon) and dissociation rates (koff) were calculated using a simple one-to-one Langmuir binding model (BIAcore Evaluation Software version 3.2). The equilibrium dissociation constant (KD) was calculated as the ratio koff/kon.

[7] = target: T1, BACE1 in primary mouse cortical neurons; test: cell-based or functional assay; remark: listed apart in the source
[8] = target: T5, human TfR extracellular domain with N-terminal His tag (human, UniProt P02786 89-760); test: ELISA
T5 construct: Biotinylated in some assays; also called huTfR; HuTfR
Target sequence in this assay (P02786 89-760 G142S): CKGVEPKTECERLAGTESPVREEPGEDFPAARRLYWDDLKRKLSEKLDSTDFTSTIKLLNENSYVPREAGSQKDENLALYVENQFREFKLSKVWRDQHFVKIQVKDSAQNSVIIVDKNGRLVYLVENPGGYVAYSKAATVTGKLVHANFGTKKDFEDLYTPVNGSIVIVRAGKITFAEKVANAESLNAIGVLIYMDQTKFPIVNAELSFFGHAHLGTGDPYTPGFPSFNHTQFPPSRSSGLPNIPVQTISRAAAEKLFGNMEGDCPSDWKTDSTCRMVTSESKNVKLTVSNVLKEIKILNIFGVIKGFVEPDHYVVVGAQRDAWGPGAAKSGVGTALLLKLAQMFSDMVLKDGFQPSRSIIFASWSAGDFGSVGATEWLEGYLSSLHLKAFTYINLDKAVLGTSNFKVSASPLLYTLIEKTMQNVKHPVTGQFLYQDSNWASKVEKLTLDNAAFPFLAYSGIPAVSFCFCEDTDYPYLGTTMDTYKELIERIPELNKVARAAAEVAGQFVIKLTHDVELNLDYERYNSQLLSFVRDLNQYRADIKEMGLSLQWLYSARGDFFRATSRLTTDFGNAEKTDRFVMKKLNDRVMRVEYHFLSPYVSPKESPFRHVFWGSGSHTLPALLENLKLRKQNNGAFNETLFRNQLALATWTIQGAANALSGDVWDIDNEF

[9] = target: T6, human TfR, full length, on cells (human, UniProt P02786 1-760); test: FACS, 293 cells, 1 uM holo-Tf
T6 construct: also called human TfR transiently expressed in 293 cells; TfR on HEL cells
Method: (§2) Briefly, FACS analysis was performed using 293 cells transfected with full length human or cyno TfR using lipofectamin 2000 plus (Invitrogen) 48-72 h before FACS analysis. […] Cells were washed twice with FACS buffer, 50 μl of PE-Goat-anti-murine Fcγ (Jackson ImmunoResearch) was added to cells and they were incubated on ice for 30 min. Cells were washed with FACS buffer and resuspended in 100 μl FACS buffer for analysis.

[10] = target: T5, human TfR extracellular domain with …; test: SPR, Fab
Method: (§3) Antibody affinities were measured using surface plasmon resonance (“SPR”) (Biacore™, GE Healthcare). Anti-His antibody (Qiagen) was coupled onto four different flow cells of a BIACORE™ CM5 sensor chip (Biacore, Inc., Piscataway, N.J.) at between 6000 and 8000 RU. Immobilization was achieved by random coupling through amino groups using a protocol provided by the manufacturer. 10×HBS-P (Biacore, Inc., Piscataway, N.J.) was diluted in water and served as the dilution and running buffer. Purified human or cyno TfR was captured, followed by a 3-fold dilution series of IgG or Fab that was injected at a flow rate of 30 ml/min using the single cycle kinetics method. Affinity constants were determined using a simple 1:1 Langmuir binding model or using a steady state model when kₒₙ or koff was beyond the detection limit. The equilibrium dissociation constant (KD) was calculated as the ratio of association rate constant (kₒₙ) and dissociation rate constant (koff).
(§4) These variants were screened as IgG by ELISA and SPR to identify positions important for binding to human and cyno TfR; the monovalent affinity of selected variants as Fab was also determined. […] Plates were washed with PBS/0.05% Tween 20 and blocked using Superblock blocking buffer in PBS (Thermo Scientific, Hudson, N.H.). Supernatants containing expressed IgG were diluted serially 1:5 and added to the plate for 1 h. […] Plates were washed with PBS/0.05% Tween 20 and 1:1000 diluted HRP-Goat-anti kappa (Southern Biotech) was added the plate and incubated for 1 h at room temperature. Plates were washed with PBS/0.05% Tween 20 and detected using TMB substrate (BioFX Laboratories, Owings Mills). Binding was also assessed by SPR, as described above.

[11] = target: T7, cyno TfR extracellular domain (analogous construct to human TfR ecd) (cynomolgus monkey, UniProt Q5RDH6 87-760 (Pongo abelii entry)); test: SPR, Fab
T7 construct: also called cynoTfR ecd
T7 chain: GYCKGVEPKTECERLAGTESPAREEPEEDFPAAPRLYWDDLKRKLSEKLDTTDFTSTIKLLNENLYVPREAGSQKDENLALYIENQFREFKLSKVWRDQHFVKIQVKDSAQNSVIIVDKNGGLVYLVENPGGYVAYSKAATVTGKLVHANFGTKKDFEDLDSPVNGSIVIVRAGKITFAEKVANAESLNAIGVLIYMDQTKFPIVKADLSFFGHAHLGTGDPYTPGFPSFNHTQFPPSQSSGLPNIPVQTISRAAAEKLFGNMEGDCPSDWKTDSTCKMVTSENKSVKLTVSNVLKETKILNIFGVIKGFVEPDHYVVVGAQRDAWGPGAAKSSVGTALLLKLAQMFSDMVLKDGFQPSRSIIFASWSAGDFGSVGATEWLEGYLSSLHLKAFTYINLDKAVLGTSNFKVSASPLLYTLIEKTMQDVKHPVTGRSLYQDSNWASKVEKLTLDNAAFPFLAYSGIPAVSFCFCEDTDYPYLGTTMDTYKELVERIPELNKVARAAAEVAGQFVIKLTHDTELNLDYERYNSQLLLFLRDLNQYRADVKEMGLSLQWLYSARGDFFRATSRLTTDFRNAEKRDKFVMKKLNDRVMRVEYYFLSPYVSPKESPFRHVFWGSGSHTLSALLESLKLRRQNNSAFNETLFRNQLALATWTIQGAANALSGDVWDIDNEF
Method: as §3, §4

[12] = target: T5, human TfR extracellular domain with …; test: SPR, IgG;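 note: His-tagged TfR captured via immobilized anti-His antibody on a CM5 chip, antibody injected in 3-fold dilution series by single cycle kinetics, 1:1 Langmuir or steady-state fit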
Target sequence in this assay (P02786 89-760 G142S): as the sequence (P02786 89-760 G142S) above
Method: as §3
(§5) In both cases, the SPR experiments were performed as described above.

[13] = target: T7, cyno TfR extracellular domain …; test: SPR, IgG;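 note: His-tagged TfR captured via immobilized anti-His antibody on a CM5 chip, antibody injected in 3-fold dilution series by single cycle kinetics, 1:1 Langmuir or steady-state fit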
Method: as §3, §5

[14] = target: T5, human TfR extracellular domain with …; test: ELISA, IgG
Target sequence in this assay (P02786 89-760 G142S): as the sequence (P02786 89-760 G142S) above
Method: (§6) Affinity variants were generated by making individual alanine substitutions in CDR-L3 or CDR-H3 using standard techniques. These variants were screened as IgG by ELISA and SPR to identify positions important for binding to human and cyno TfR; the monovalent affinity of selected variants as Fab was also determined. […] Plates were washed with PBS/0.05% Tween 20 and blocked using Superblock blocking buffer in PBS (Thermo Scientific, Hudson, N.H.). Supernatants containing expressed IgG were diluted serially 1:5 and added to the plate for 1 h. […] Plates were washed with PBS/0.05% Tween 20 and 1:1000 diluted HRP-Goat-anti kappa (Southern Biotech) was added the plate and incubated for 1 h at room temperature. Plates were washed with PBS/0.05% Tween 20 and detected using TMB substrate (BioFX Laboratories, Owings Mills).

[15] = target: T7, cyno TfR extracellular domain …; test: ELISA, IgG
Method: as §6

[16] = target: T5, human TfR extracellular domain with …; test: SPR SCK 1:1 fit, IgG
Method: as §3, §4

[17] = target: T7, cyno TfR extracellular domain …; test: SPR SCK 1:1 fit, IgG
Method: as §3, §4

[18] = target: T5, human TfR extracellular domain with …; test: ELISA, immobilized huTfR, with and without 6.3 uM holo-Tf
Method: Plates were washed with PBS/0.05% Tween 20 and blocked using Superblock blocking buffer in PBS (Thermo Scientific, Hudson, N.H.). […] Plates were washed with PBS/0.05% Tween 20 and 1:1000 diluted HRP-Goat-anti human Fcγ (Jackson ImmunoResearch) was added to the plate and incubated for 1 h at room temperature. Plates were washed with PBS/0.05% Tween 20 and detected using TMB substrate (BioFX Laboratories, Owings Mills).

[19] = target: T6, human TfR, full length, on cells; test: FACS, 293 cells, 1 uM holo-Tf; remark: listed apart in the source
Method: as §2

[20] = target: T5, human TfR extracellular domain with …; test: ELISA, IgG; remark: listed apart in the source
Target sequence in this assay (P02786 89-760 G142S): as the sequence (P02786 89-760 G142S) above

[21] = target: T7, cyno TfR extracellular domain …; test: ELISA, IgG
[22] = target: T5, human TfR extracellular domain with …; test: SPR SCK 1:1 fit, IgG; remark: listed apart in the source
Target sequence in this assay (P02786 89-760 G142S): as the sequence (P02786 89-760 G142S) above

[23] = target: T7, cyno TfR extracellular domain …; test: SPR SCK 1:1 fit, IgG
[24] = target: T5, human TfR extracellular domain with …; test: SPR steady state, IgG
Target sequence in this assay (P02786 89-760 G142S): as the sequence (P02786 89-760 G142S) above
Method: as §3, §4

[25] = target: T7, cyno TfR extracellular domain …; test: SPR steady state, IgG
Method: as §3, §4

T1 sequence (P56818 46-501): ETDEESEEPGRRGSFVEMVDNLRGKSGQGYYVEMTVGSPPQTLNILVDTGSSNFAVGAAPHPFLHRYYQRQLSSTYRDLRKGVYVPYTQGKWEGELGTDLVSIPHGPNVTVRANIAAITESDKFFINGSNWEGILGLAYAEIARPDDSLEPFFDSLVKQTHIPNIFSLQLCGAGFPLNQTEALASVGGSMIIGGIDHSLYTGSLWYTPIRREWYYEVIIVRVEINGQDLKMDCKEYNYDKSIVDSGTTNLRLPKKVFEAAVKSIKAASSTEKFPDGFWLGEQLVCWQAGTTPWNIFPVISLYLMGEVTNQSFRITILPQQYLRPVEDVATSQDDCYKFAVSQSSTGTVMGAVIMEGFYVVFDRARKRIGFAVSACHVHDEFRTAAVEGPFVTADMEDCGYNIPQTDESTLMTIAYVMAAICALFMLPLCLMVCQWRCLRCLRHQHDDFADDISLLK

B1: anti-BACE1 antibody 6266 (antibody, V domains shown)
VH: EVQLVQSGAEVKKPGSSVKVSCKASGGTLSGYGVSWVRQAPGQGLEWMGNIIPGFGTANYAQKFQGRVTITADESTSTAYMELSSLRSEDTAVYYCARSGGTKYGMLDVWGQGTMVTVSS
VL: EIVMTQSPATLSVSPGERATLSCRASQSVSSNLAWYQQKPGQAPRLLIYGASTRATGIPARFSGSGSGTEFTLTISSLQSEDFAVYYCQQLILWPPRTFGGGTKVEIK
notes: Fully human antibody
IC50, inhibition of Abeta x-40 production in primary mouse cortical neurons [1]: 1.7 nM
Kd [2]: < 0.24 nM
Kd [3]: 0.32 nM
Kd [4]: < 0.3 nM
Kd [5]: < 0.31 nM
Kd [6]: 1.12 nM
IC50, Abeta x-40 in mouse cortical neurons [7]: 1.66 nM
maximal % inhibition of Abeta x-40 [7]: 87%

B4: Q90A (Fab, V domains shown)
VH: EVQLVQSGAEVKKPGASVKVSCKGSGYTFTDYAMHWVRQAPGQGLEWMGGISTYFGRTNYNQKFKGRVTMTVDTSISTAYMELSRLRSDDTAVYYCARGLSGNYVMDYWGQGTTVTVSS
VL: DIVMTQSPDSLAVSLGERATINCRASESVDSYGNSFMHWYQQKPGQPPKLLIYRASNLESGVPDRFSGSGSRTDFTLTISSLQAEDVAVYYCQASNEAPPTFGQGTKLEIK
notes: also called 7A4.v15 Q90A (CDR-L3) Fab
Kd [10]: 130 nM
Kd [11]: 760 nM

B9: P95A (antibody, V domains shown)
VH: EVQLVQSGAEVKKPGASVKVSCKASGYTFTSYWMHWVRQAPGQRLEWIGEINPTNGRTNYIEKFKSRATLTVDKSASTAYMELSSLRSEDTAVYYCARGTRAYHYWGQGTMVTVSS
VL: DIQMTQSPSSLSASVGDRVTITCRASDNLYSNLAWYQQKPGKSPKLLVYDATNLADGVPSRFSGSGSGTDYTLTISSLQPEDFATYYCQHFWGTALTFGQGTKVEIK
notes: also called 15G11.v5 P95A (CDR-L3) IgG
EC50 [20]: 0.0106 mg/L
EC50 [21]: 0.0406 mg/L
Kd [22]: 29 nM
Kd [23]: 57 nM
Kd [24]: 94 nM
Kd [25]: 258 nM

B10: Q89A (antibody, V domains shown)
VH: EVQLVQSGAEVKKPGASVKVSCKASGYTFTSYWMHWVRQAPGQRLEWIGEINPTNGRTNYIEKFKSRATLTVDKSASTAYMELSSLRSEDTAVYYCARGTRAYHYWGQGTMVTVSS
VL: DIQMTQSPSSLSASVGDRVTITCRASDNLYSNLAWYQQKPGKSPKLLVYDATNLADGVPSRFSGSGSGTDYTLTISSLQPEDFATYYCAHFWGTPLTFGQGTKVEIK
notes: also called 15G11.v5 Q89A (CDR-L3) IgG
EC50 [20]: 0.03 mg/L
EC50 [21]: 0.506 mg/L
Kd [22]: 125 nM
Kd [23]: 268 nM
Kd [24]: 212 nM
Kd [25]: 591 nM

Next, values leading:

IC50, inhibition of Abeta x-40 production in primary mouse cortical neurons [1]: 1.7 nM
B2: bispecific antibody TfR^2/6266 (bispecific antibody, V domains shown)
VH 1: EVQLVQSGAEVKKPGASVKVSCKASGYTFTSYWMHWVRQAPGQRLEWIGEINPTNGRTNYIEKFKSRATLTVDKSASTAYMELSSLRSEDTAVYYCARGTRAYHYWGQGTMVTVSS
VL 1: DIQMTQSPSSLSASVGDRVTITCRASDNLYSNLAWYQQKPGKSPKLLVYDATNLADGVPSRFSGSGSGTDYTLTISSLQPEDFATYYCQHFAGTPLTFGQGTKVEIK
VH 2: EVQLVQSGAEVKKPGSSVKVSCKASGGTLSGYGVSWVRQAPGQGLEWMGNIIPGFGTANYAQKFQGRVTITADESTSTAYMELSSLRSEDTAVYYCARSGGTKYGMLDVWGQGTMVTVSS
VL 2: EIVMTQSPATLSVSPGERATLSCRASQSVSSNLAWYQQKPGQAPRLLIYGASTRATGIPARFSGSGSGTEFTLTISSLQSEDFAVYYCQQLILWPPRTFGGGTKVEIK

binding result [8]: binds
binding result [9]: binds
B3: 15D2 (antibody, V domains shown)
VH: QVQLQQSGPELVRPGVSVKISCKGSGYTVTDYAMHWVKQSHAKSLEWIGVISFYSGKTNYNQKFMGKATMTVDKSSSTAYMELARLTSEDSAIYYCARGLSGNYVMDYWGQGTSVTVSS
VL: DIVLTQSPASLAVSLGQRATISCRASESVDSYGNSFMHWYQQKPGQPPKLLIYRASNLESGIPARFSGSGSRTDFTLTINPVEADDVATYYCQQSNEGPPTFGGGTKLEIK
notes: Mouse hybridoma antibody; also called clone 15D2

Kd [12]: 0.561 nM
Kd [13]: 7.8 nM
EC50 [14]: 0.0148 mg/L
EC50 [15]: 0.0142 mg/L
Kd [16]: 0.58 nM
Kd [17]: 7.8 nM
EC50 (read off the curve) [18]: ~0.005 mg/L
B5: hu7A4.v15 IgG (antibody, V domains shown)
VH: EVQLVQSGAEVKKPGASVKVSCKGSGYTFTDYAMHWVRQAPGQGLEWMGGISTYFGRTNYNQKFKGRVTMTVDTSISTAYMELSRLRSDDTAVYYCARGLSGNYVMDYWGQGTTVTVSS
VL: DIVMTQSPDSLAVSLGERATINCRASESVDSYGNSFMHWYQQKPGQPPKLLIYRASNLESGVPDRFSGSGSRTDFTLTISSLQAEDVAVYYCQQSNEAPPTFGQGTKLEIK
notes: Human IgG; also called humanized 7A4.v15

binding result [8]: binds
binding result [19]: binds
B6: 13C3 (antibody, V domains shown)
VH: QVQLQQPGAELVKPGASVKLSCKASGYTFASYWMHWVKQRPGQGLEWIGEINPINGRTNYSEKFKKKATLTVDKSSSTAYMQLSSLTSEDSAVYYCARGTRAYHYWGQGTSVTVSS
VL: DIQMTQSPASLSVSVGETVTITCRASDNIYSNLAWYQQKQGKSPQLLVYAATNLADGVPSRFSGSGSGTQYSLKINSLQSEDFGSYYCQHFWGTPLMFGSGTKLELK
notes: Mouse hybridoma antibody; also called clone 13C3

binding result [8]: binds
binding result [19]: binds
B7: 16G5 (antibody, V domains shown)
VH: QVQLQQPGAELVRPGAAVKLSCKASGYTFTSYWMHWVKQRPGQGLEWIGEINPTNGRTNYNENFKSKATLTVDKSSSTAYMQLSSLTSEDSAVYYCARGTRAYHFWGQGTSVTVSS
VL: DIQLTQTPASLSVSVGETVTITCRASENIYSNLAWYQQKQGKSPQLLVYAATDLADGVPSRFRGSGSGTQYSLKINSLQSEDFGSYYCQHFWGTPLTFGAGTKLELI
notes: Mouse hybridoma antibody; also called clone 16G5

binding result [8]: binds
binding result [9]: binds
B8: 4C2 (antibody, V domains shown)
VH: QVQLQQPGSELVRPGASVKLSCKASGYTFTSYWMHWVKQRHGQGLEWIGNIYPGSGSTKYDEKFKSKGTLTVDTSSSTAYMHLSSLTSEDSAVYYCTRGGYDSRAWFAHWGQGTLVTVSA
VL: DIVLTQSPASLAVSLGQRATISCRARQSVSTSSYSFMHWYQQKPGQPPKLLIKYASIQESGVPARFSGSGSGTDFTLNILPVEEEDTATYYCQHTWEIPFTFGSGTNLEIK
notes: Mouse hybridoma antibody; also called clone 4C2
